The data set is described as follows: yeast display, Sf9 membrane polyspecificity reagent, FACS + sequencing; frameworks hold sequencing errors. The essentials: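 Nanobodies came from a synthetic yeast display library in Saccharomyces cerevisiae BJ5465, induced with galactose for 36–48 hours and stained for 1 hour at 4 °C with 10% biotinylated, detergent-solubilized Sf9 membrane reagent. Cells were enriched on streptavidin microbeads and then FACS-sorted, with low and high (top ~1%) gates set on anti-HA fluorescence for expression and streptavidin fluorescence for reagent binding. Each polyreactivity label reflects the gate a clone came from. Genes were amplified by colony PCR, sequenced by MiSeq 2 × 250 and filtered by CDR length.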
Turning to “QVQLVESGGGLVQAGGSLRLSCAASGSIFFVNAMGWYRQAPGKERELVAAITWNAGRTYYADSVKGRFTISRDNAKNTVYLQMNSLKPEDTAVYYCNARAYYSSAIYDYWGQGTQVTVSS”, the “polyreactivity (PSR sort gate)” value is recorded as “low polyreactivity”.
Turning to “QVQLVESGGGLVQAGGSLRLSCAASGRTIYWNAMVWSRQAPGKERELVAAISNGGTTTYYADSVKGRFTISRDNAKNTVYLQMNSLKPEDTAVYYCAGDIRYFDYDYWGQGTQLTVSS”, the “polyreactivity (PSR sort gate)” value is reported as “high polyreactivity”.
The value for “QVQLQESGGGLEQAGGSLRLSCAASGYISEIGTMGWYRQAPGKEREFVATIVVGSTTNYADSVKGRFTISRDNAKNTVYLQPESGRYRGVLLRGWLLAVGKFNYWGQGTQETVSS” was “low polyreactivity”.
The value for “QVQLVDSGGGLVQAGGSLRLSCAASGSTFLFNAMGWYRQAPGNVREVVAGISSSGGSTHYADSVKGRFTISRDNAKNTVYLQMNSLKPEDTAVYYCNAQQYLPSEGDYWGQGTQVTVSS” was “low polyreactivity”; that for “QVQLLESGGGLVQAGGSLRLSCAASGRTFYRTAKGWYRQAPGKERELVASITRSGNTNYADSVKGRFTISRDNAKNTVYLQMNSLKPEDTAVYYCAARPWLRNKYDYWGQGTQVTVSS” was “high polyreactivity”; that for “QVQHVESGGGLVQAGGSLRLICAASGITFHYYAMGWYRQAPGKDRELVAAISSGGRTNYADSVKGRFTISRDNAKNTVYLQMNCLKPEDTAVYYCAGVYFGGYTATVYYWGQGTQVTVSS” was “high polyreactivity”.
On to “QVQLVESGGGLVQAGGSLRLSCAASGLTSIHYMGWSRQAPGKERELVATITSSTGSTYYADSVKGRFTISRDNAKNTVYLQMNSLKPEDTAVYYCAAESFGADGPYQPSYDYWGQGTQVTVSS”, for which the “polyreactivity (PSR sort gate)” value is on record as “low polyreactivity”.
With “QVQLVDSGGGLVQAGGSLRLSSAASGFIFYEYAMGWYRQAPGKEMELVAAITSGGSTDYADSVKGRFSSSRDNAKNTVYLQMNCMKPDDTAVYYCNADLLTGYYWYKYWGQGTQVSVSS”, the “polyreactivity (PSR sort gate)” value was “low polyreactivity”.
The value for “QVQLVESRGGLVQAGGSLRLRCAASGFIFGYNVMGWYRQAPGKERELVASISTGGRTYYADSVKGRFTISRDNAKNTVYLQMNSLKPEDTAVYYCAARYRSYSYLYYSWGQGTQVTVSS” was “high polyreactivity”; that for “QVQLVESGGGLVQEGGSLRLSCAASGFTLYGYTMGWYRQAPGKERELVAAISGSGGRTYYADSVKGRFTISRDNAKNTVYLQMNSLKPEVTEVYYCAADSRGTWYGYDYWGQGTQVTVSS” was “high polyreactivity”; that for “QVQLVESGGGLVQAGGSLRLSCAASGRIFDYYDLGWYRQAPRKERELVAAITSSGTSTYYADSVKGRFTISRDNAKNTVYLQMNSLKPEDTAVYYCNARSIRPWGENGYWGQGTQVTVSS” was “high polyreactivity”.
The value for “QVQLEESGGRLVQAGCSLRLSCAASGRTFDYYAMGWYRQAPGKEWELVAAITASGGSTFYADSVKGRFTISRDNAKNTVYLQMYSMKPEDTAVYYCAGRYTWRYFIKYGYWGQGTQVTVSS” was “high polyreactivity”.
The value for “QVQLVESGGGLVQAGGSLRLSCAASGRTFGYNAMGWYRQAPGKERELVASISYRGGSTYYADSVKGRFTISRDNAKNTVYLQMNSLKPEDTAVYYCNKYYVWREYYWGQGTQVTVSS” was “high polyreactivity”; that for “QVQLVESGGGLVQAGGSLRLSCAASGSTFNINVMGWYRQAPGKERELVASISTGDITYYADSVKGRFTISRDNAKNTVYLQMNSLKPEDTAVYYCAAESYTGKYSWVWKWYDYWGQGTQVTVSS” was “low polyreactivity”.
With “QVQLVESGGGLVQAGGSLRLSCAASGRIYAMGWYRQAPGKERELVAAISRGGSTYYADSVKGRFTISRDNAKNTVYLQMNSLKPEDTAVYYCARRYASTGYDYWGQGTQVTVSS”, the “polyreactivity (PSR sort gate)” value is on record as “high polyreactivity”.
The value for “QVQLVESGGGLVQAGGSLRLSCAASGITFGWYAMGWYRQAPGKERELVAAISWSGGTTYYADSVKGRFTISRDNAKNTVYLQMNSLKPEDTAVYYCAATWYYPTVYAGNYWGQGTQVTVSS” was “high polyreactivity”; that for “QVQLVESGGGLVQAGGSLRLSCAASGSIFSSNAMGWYRQAPGTTNYADSVKGRFTISRDNAKNTVYLQMNSLKPEDTAVYYCAKDYVLFQYVDFQDDDYWGQGTQVTVSS” was “low polyreactivity”; that for “QVQLVESGGGLVQAGGSLRLSCAASGRTFSHYAMGWYRQAPGKERELVAGISSGSRTNYADSVKGRFTISRDNAKNTVYLQMNSLKPEDTAVYYCAARTKYLKGGYWGQGTQVTVSS” was “high polyreactivity”.
Consider “QVQLVESRGGLVQAGGSLRLSSAASGSTYGVNPMGWYRQAPGKERELVAAISVSGGRTYYADSVKGRFTISRDNAKNTVDLQMNSLKPEDTAVYYCNADGLYAYVWYDYWGQGTQVSVSS”, for which the “polyreactivity (PSR sort gate)” value is on record as “low polyreactivity”.
The value for “QVQLVESGGGLVQAGGSLRLSCAASGSTFFLYAMGWYIQAPGKERELVAAISGSGGTTYYADSVKGRFTISRDNAKNTVYLQMNSLKPEDTAVYYCNKDYYPGSYDYWGQGTQVTVSS” was “low polyreactivity”.
For “QVQLVESGGGLVQEGGSLRLSCAPSGRTFAKYAMGWYRQSPGKERELVAAITRGDTTNYADSVKGRFTISRDNAKNTVYLQMNSLKPEDTAVYYCAATPDPPHTYEYWGQGTQVTVSS”, the “polyreactivity (PSR sort gate)” value is given as “low polyreactivity”.
Turning to “QVQLVESGGGLVQAGGSLRLSCAASGSIFHGYAMGWYRRAPGKERELVAAITYSGGRTYYADSVKGRFTISRDNAKNTVYLQMNSLKPEDTAVYYCAALTRRVKKYDYWGQGTQVTVSS”, the “polyreactivity (PSR sort gate)” value is reported as “high polyreactivity”.
The entry for “QVQLVESGGGLVQARGSLRLSCAASGSTFDPYAMGWYRQAPGINYSGASTYYADSVKGRFTISRDNAKNTVYLQMNSLKPDDTAVYYCAAEFVAQMNYWGQGTQVNVSS” is “low polyreactivity”; for “QVQLVESGGGLVQAGGILRLSCAASGFTFHRYAMGWYRQAPGKERELVARITRGGSTKYADSVKGRFTISRDNAKNTVYLQMNSLKPEDTAVYYCAADYGGFLGYDYWGQGNQVTVSS” it is “high polyreactivity”.
As for “QVQLVESGGGLVQAGGSLRLSCAASGFIFGKYAMGWYRQAHGKERELVAAITSDGRTYYADSVKGRFTISRDNAKNTVYLQMNSLKPEDTAVYYCAATRYGHRYYYRPYEYWGQGTQVTVSS”, the “polyreactivity (PSR sort gate)” value is reported as “high polyreactivity”.
Turning to “QVQLVESGGGLVQAGGSLRLSCAASGSTFVQNTMGWYRQAPGKERELVAAITRGGSTSYADSVKGRFTISRDNAKNTVYLQMNSLKPEDTAVYYCNAKSRSPTYRYRSWPYNYWGQGTQVTVSS”, the “polyreactivity (PSR sort gate)” value is “high polyreactivity”.
As to “QVQLVESGGGLVQAGGSLRLSCAASGITFAYNAMGWYRQEPGKERELVARITSGGRTYYADSVKGRFTISRDNAKNTVYLQMNSLKPEDTAVYYCATPYTSYLYGYDYWGQGTQVTVSS”, the “polyreactivity (PSR sort gate)” value is “low polyreactivity”.
In the case of “QVQLVESGGGLGQAGGSLRLSCAASGLTFLDYAMGWSRQAPGKERELVAAITSGGSTNYADSVKGRFTISRDKAKNTVYLQMNSLKPEDTAVYYFATDLEVSAYDYWGQGTQVTVSS”, the “polyreactivity (PSR sort gate)” value is given as “low polyreactivity”.
In the case of “QVQLVESGGGLVQAGGSLRLSCAASGSIFLVYAMGWYRQAPGKERELVAVITKSGGSTYYADSVKGRFTISRDNAKNTVYLQMNSLKPEDTAVYYCAARRRGARHDYWGQGTQVTVSS”, the “polyreactivity (PSR sort gate)” value is given as “high polyreactivity”.
Turning to “QVQLVESGGGLVQAGGSLRLSCAASGSIFDFYAMGWYRQAPGKERELVAAITWSGDTTYYADSVKGRFTISRDNAKNTVYLQMNSLKPEDTAVYYCAAEGWYWWYGRDYYWGQGTQVTVSS”, the “polyreactivity (PSR sort gate)” value is recorded as “high polyreactivity”.
The entry for “QVQLVESGGGLVQAGGSLRLSCAASGRTFGHYAMGWYRQAPGKERELVATITGGGTTNYADSVKGRFTISRDNAKNTVYLQMNRLKPEDTAVYYCNAAWRYYWLGLRRNGYWGQGTQVTVSS” is “high polyreactivity”; for “QVQLVESGGGLVQAGGSLRLSCAASGSTFIFYVMVWYRQAPGKERELVASITGNGTSTYYADSVKGRFTISRDNAKNTVYLQMNSLKPEDSAVYYCNAVFSPSRYDYWGQGTQVTVSS” it is “low polyreactivity”.
Consider “QVQLVESGGGLVQARGSLRLSCAASGIIFAFYAMGWYRQPPGKERELVAGITSGGDTYYADSVKGRFTISRDNAKKTVYLQMNRLKPEDTAVYYCAAVVQYPYRAGWRYWYATNFDYWGQGTQVTVSS”, for which the “polyreactivity (PSR sort gate)” value is “high polyreactivity”.
Turning to “QVHLVESGGGLVQAGGSLPLSCAATGRTFVYYAMGWYIQAPGKERELVAAITWTGGSTYYADSVKGRFTISRDTAKNTVYLHMNSMKPEDTAVYYFKAAVFRYRNEYDYWGQGTQVTVSS”, the “polyreactivity (PSR sort gate)” value is listed as “low polyreactivity”.
In the case of “QDQLVESGGGLVQAGGSLRLSGAASGSTFGGNAMGWYRQAPGKERELVAAISSSGGSTYYADSVKGRFTISRDNAKYSVYLQMNRLKPEDTAVYYCAAMYHWTYDYWGQGTQVTVSS”, the “polyreactivity (PSR sort gate)” value was “low polyreactivity”.
On to “QVQLVESGGGLVQAGGSLRLSCAASGRTFRPYAMGWYRQAPGKEMELVAAIDSSGTSTYYADSVKGRFTISRDTAKNTVYLQMNSLKPEDTAVYYCAKAWPDHWYSRYDYWGQGTQLTVSS”, for which the “polyreactivity (PSR sort gate)” value is recorded as “low polyreactivity”.
Turning to “QVQLVESGGGLVQAVGSLLLSCAASGITFRYYAMGWYRQAPGKERELVARITTDGSTHYADSVMGRFTISRDNAKNTVYLQMNSLKPEDTAVYYCNVDGYYLFVRGYEYWGLGTQVTVSS”, the “polyreactivity (PSR sort gate)” value is listed as “low polyreactivity”.
The entry for “QVQLVESGGGLVQAGGSLRLSCAASGSNFVNNAMGWYRQAPGKERELVASITWSGGRTYYADSVKGRFTISRDNAKNTVDLQMNSLKPEDTAVYYCNKRQYSRTFRYGYWGQGTEVTVSS” is “high polyreactivity”.
The value for “QVQLVESGGGLVQAGGSLRLSCAASGRTSYYAMGWYRQAPGKERELVAAINSGDSTTYADSVKGRFTISRDNAKNTVYLQMNSLKPEDTAVYYCATALYDWYSLEFDYWGQGTQVTVSS” was “low polyreactivity”; that for “QVQLVESGGGLVQAGGSLRLSCAASGSIFRLNAMGWYRQAPGKERELVAAITSSGGNTYYADSVKGRFTISRDNAKNTVYLQMNSLKPEDTAVYYCATRAYARWYGYWGQGTQVTVSS” was “low polyreactivity”; that for “QVQLEESGGGLVQAGGSLRLSCAASGFTFHPNAMGWYRQAPGKERELVAAIRYSTGRTYYADSVKGRFTISRDNAKNTVYLQMNSLKPEDTAVYYCAREALQYPGLKYNYWGQGTQVTVSS” was “low polyreactivity”.

(Values after the nanobody polyreactivity screen of Harvey et al. (2022).)
